In the supplement of paper PMC10724198:
± gives the standard deviation of the averaged measurements.

Test system: Saccharomyces cerevisiae
Assay: protein stability index of tFT-peptide fusion (C-terminal peptide) (PSI (0-1 scale)); higher = more stable (slower turnover)
Conditions: genetic background: wild type; temperature: 30 C
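Note: PSI is a weighted mean of sequencing reads over stability bins, variants kept only with over 10 reads, mCherry proximal and sfGFP distal, peptide attached via GGGS linker.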

SSVFRSYTSVLS
protein stability index: 0.686 ± 0.076

SSVGLRTRRTAR
protein stability index: 0.638 ± 0.081

SSVILPLRRWPP
protein stability index: 0.648 ± 0.094

SSVVPITLPAFL
protein stability index: 0.707 ± 0.019

STALVFSDSALL
protein stability index: 0.694 ± 0.061

STDRPLRLHPGG
protein stability index: 0.622 ± 0.041

STEFCRIIYRGP
protein stability index: 0.681 ± 0.023

STICQRSTSGKG
protein stability index: 0.657 ± 0.031

STLAPRVYLRLR
protein stability index: 0.676 ± 0.032

STPLLLSPPLFC
protein stability index: 0.649 ± 0.04

STPSMGSMTRLE
protein stability index: 0.731 ± 0.041

STPSPPPAPRSP
protein stability index: 0.708 ± 0.015

STPVEATQDVAR
protein stability index: 0.724 ± 0.0083

STQGAFHFLVSL
protein stability index: 0.679 ± 0.015

STRFVRNEFGVS
protein stability index: 0.665 ± 0.035

STVFAICQVLPI
protein stability index: 0.6592 ± 0.0021

STVGSKLCWESS
protein stability index: 0.682 ± 0.072

SVCEWSRVGIRL
protein stability index: 0.6476 ± 0.0056

SVETVSSSSVAD
protein stability index: 0.656 ± 0.057

SVFERDWTGGEV
protein stability index: 0.7184 ± 0.00085

SVGFVGVGCRGR
protein stability index: 0.707 ± 0.025

SVGGVGGAVGGG
protein stability index: 0.663 ± 0.014

SVGLTGHGTRGV
protein stability index: 0.571

SVGPWVSSGGFR
protein stability index: 0.6664 ± 0.0048

SVHAMDCNGYAN
protein stability index: 0.643 ± 0.013

SVLRWAVLGQTR
protein stability index: 0.728 ± 0.18

SVLSVAIRAPTQ
protein stability index: 0.691 ± 0.093

SVLVLPVLFLED
protein stability index: 0.6884 ± 0.004

SVMFSSLTRPPL
protein stability index: 0.65 ± 0.11

SVPGLELGLPLR
protein stability index: 0.675 ± 0.061

SVPRPPPPRAPL
protein stability index: 0.646 ± 0.17

SVRCPPLSPRPP
protein stability index: 0.667 ± 0.036

SVRLTYQNIIVN
protein stability index: 0.583 ± 0.02

SVSRGAPSGSLG
protein stability index: 0.688 ± 0.067

SVSRGSWVWGRL
protein stability index: 0.723 ± 0.061

SVTTNDQLPCHS
protein stability index: 0.691 ± 0.026

SVVGHGVCGGRG
protein stability index: 0.649 ± 0.11

SVVSSDVGGGRI
protein stability index: 0.5391 ± 0.0047

SVYGIASRAQLL
protein stability index: 0.64 ± 0.11

SWCRCLALLDCT
protein stability index: 0.659 ± 0.028

SWGGGGGGAGRG
protein stability index: 0.653 ± 0.017

SWPLIFSLPNFI
protein stability index: 0.716 ± 0.026

SWPMLSVLADER
protein stability index: 0.717 ± 0.04

SWPPCPSGRGRG
protein stability index: 0.727 ± 0.029

SWPTRRLVVHGL
protein stability index: 0.655 ± 0.0071

SWRRRNGNCERR
protein stability index: 0.646 ± 0.063

SYDNPPDTSRPR
protein stability index: 0.768 ± 0.046

SYFVIPGLSLSV
protein stability index: 0.568 ± 0.056

SYGADSVSYLKT
protein stability index: 0.651 ± 0.033

SYGPKMAKAVFR
protein stability index: 0.706 ± 0.056

SYKAFVFSSDVW
protein stability index: 0.77 ± 0.045

SYKIDYIDIRVG
protein stability index: 0.59 ± 0.029

SYLHALSRPSLL
protein stability index: 0.734 ± 0.03

SYLPLGTVLMLG
protein stability index: 0.681 ± 0.032

SYPDYFDSDSSD
protein stability index: 0.716 ± 0.011

SYSPPPLPPHPP
protein stability index: 0.55109 ± 0.00031

SYTAPPLLRSSY
protein stability index: 0.679 ± 0.015

TAQKHQQPVQLH
protein stability index: 0.715 ± 0.028

TARDLEGTRAKG
protein stability index: 0.638 ± 0.028

TASAAKGAAPQQ
protein stability index: 0.676 ± 0.016

TASFVSSGLLAF
protein stability index: 0.586 ± 0.012

TASLQGCANGQS
protein stability index: 0.674 ± 0.012

TAVPRARRRVVR
protein stability index: 0.712 ± 0.018

TCLMLSCRSFLW
protein stability index: 0.63 ± 0.018

TDFRSGLIFIIV
protein stability index: 0.544 ± 0.045

TDLGYGRLGGWV
protein stability index: 0.682 ± 0.083

TEIKILNKKKSR
protein stability index: 0.7294 ± 0.0043

TELSLHFAGYAE
protein stability index: 0.74 ± 0.031

TERGRLVWYCMR
protein stability index: 0.674 ± 0.077

TETAHNFPYCCD
protein stability index: 0.676 ± 0.025

TEVRHMKGVAWW
protein stability index: 0.6919 ± 0.0044

TFENLFRLPWFK
protein stability index: 0.699 ± 0.052

TFLYLSGRVVGL
protein stability index: 0.651 ± 0.013

TFPGRLPLTRLP
protein stability index: 0.726 ± 0.038

TFPPLSPSPPLS
protein stability index: 0.727 ± 0.13

TFSVPLPPPLAP
protein stability index: 0.6573 ± 0.0038

TFVVGTRVFSCD
protein stability index: 0.631 ± 0.096

TFYLHSLLPTSF
protein stability index: 0.6913 ± 0.0024

TGCGSRSSRTKT
protein stability index: 0.864 ± 0.021

TGCRAVPDLNAD
protein stability index: 0.695 ± 0.018

TGIGPWVSPSIC
protein stability index: 0.667 ± 0.018

TGISPWPPSERR
protein stability index: 0.808 ± 0.19

TGLYLRCVWGVQ
protein stability index: 0.507 ± 0.046

TGNARCYFGKSV
protein stability index: 0.692 ± 0.011

TGNQCGNGYSWR
protein stability index: 0.696 ± 0.013

TGPIIPSDNRFL
protein stability index: 0.692 ± 0.04

TGRGGAPRAKEE
protein stability index: 0.699 ± 0.0039

TGSLSSTCPPAT
protein stability index: 0.717 ± 0.075

THHPQRPPRTLP
protein stability index: 0.745 ± 0.062

THHSDLHPRTAP
protein stability index: 0.697 ± 0.033

THLDKLYPKEHT
protein stability index: 0.689 ± 0.054

THPPLPPYLSPP
protein stability index: 0.727 ± 0.015

THYKLFGSLNLL
protein stability index: 0.634 ± 0.035

TIPSHPLLPTLC
protein stability index: 0.648 ± 0.049

TISFASLLPPPF
protein stability index: 0.723 ± 0.048

TISHPLGPFSVH
protein stability index: 0.66 ± 0.042

TIVRTTLLEIWR
protein stability index: 0.619 ± 0.04

TKKDNKYNRNKK
protein stability index: 0.656 ± 0.029

TKKKPGEPGKRK
protein stability index: 0.666 ± 0.013

TKLRHHKTQIVD
protein stability index: 0.652 ± 0.059

TKNNYKKKKTKT
protein stability index: 0.682 ± 0.029
